To fix the notation:
B1: Azoarcus group I ribozyme (parent)
chain: GUGCCUUGCGCCGGGAAACCACGCAAGGGAUGGUGUCAAAUUCGGCGAAACCUAAGCGCCCGCCCGGGCGUAUGGCAACGCCGAGCCAAGCUUCGGCGCCUGCGCCGAUGAAGGUGUAGAGACUAGACGGCACCCACCUAAGGCAAACGCUAUGGUGAAGGCAUAGUCCAGGGAGUGGCGAAAGUCACACAAACCGG

The variants in the series derive from B1. Nature of the series: reverse-splicing fitness (ratio to wild type); higher = more active; in vitro selection; Mg2+ level not given. Summed up: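 An in vitro group I ribozyme library with randomized positions was T7-transcribed and gel-purified. In triplicate, 10 pmol RNA in EPPS pH 7.5 was reacted with 50 pmoles of a 30-nt RNA substrate for 1 h at 37 °C across several added MgCl2 levels (1–48 mM), then stopped with EDTA. Products were reverse transcribed from a substrate-complementary primer, PCR-amplified and sequenced (HiSeq 4000). Fitness is a variant's read proportion after selection over that before, normalised to wild type.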
With GUGCCUUGCGCCGGGAAACCACGCAAGGGAUGGUGUCAAAUUCGGCGAAACCUAAGCGCCCGCCCGGGCGUAUGGCAACGCGGAGCCAAGCUUCGGCGCCUGCGCCGAUGUAGGUGUAGCGACUAGACGGCACCCACCUAAGGCUAACGCUAUGGUGAAGGCAUAGUCGAGGGAGAGGCGAAAGUCACACAAACCGG, the reverse-splicing fitness was determined as 0.0154.
Consider GUGCCUUGCGCCGGGAAACCACGCAAGGGAUGGUGUCAAAUUCGGCGAAACCUAAGCGCCCGCCCGGGCGUAUGGCAACGCGGAGCCAAGCUUCGGCGCCUGCGCCGAUGUAGGUGUAGCGACUAGACGGCACCCACCUAAGGCUAACGCUAUGGUGAAGGCAUAGUCGAGGGAGCGGCGAAAGUCACACAAACCGG, for which the reverse-splicing fitness was found to be 0.0213.
Take GUGCCUUGCGCCGGGAAACCACGCAAGGGAUGGUGUCAAAUUCGGCGAAACCUAAGCGCCCGCCCGGGCGUAUGGCAACGCGGAGCCAAGCUUCGGCGCCUGCGCCGAUGUAGGUGUAGCGACUAGACGGCACCCACCUAAGGCUAACGCUAUGGUGAAGGCAUAGUCGAGGGAGGGGCGAAAGUCACACAAACCGG: the reverse-splicing fitness was determined as 0.00535.
The same measure for GUGCCUUGCGCCGGGAAACCACGCAAGGGAUGGUGUCAAAUUCGGCGAAACCUAAGCGCCCGCCCGGGCGUAUGGCAACGCGGAGCCAAGCUUCGGCGCCUGCGCCGAUGUAGGUGUAGCGACUAGACGGCACCCACCUAAGGCUAACGCUAUGGUGAAGGCAUAGUCAAGGGAGCGGCGAAAGUCACACAAACCGG: 0.0142; for GUGCCUUGCGCCGGGAAACCACGCAAGGGAUGGUGUCAAAUUCGGCGAAACCUAAGCGCCCGCCCGGGCGUAUGGCAACGCGGAGCCAAGCUUCGGCGCCUGCGCCGAUGUAGGUGUAGCGACUAGACGGCACCCACCUAAGGCUAACGCUAUGGUGAAGGCAUAGUCAAGGGAGAGGCGAAAGUCACACAAACCGG: 0.015.
Regarding GUGCCUUGCGCCGGGAAACCACGCAAGGGAUGGUGUCAAAUUCGGCGAAACCUAAGCGCCCGCCCGGGCGUAUGGCAACGCGGAGCCAAGCUUCGGCGCCUGCGCCGAUGUAGGUGUAGCGACUAGACGGCACCCACCUAAGGCUAACGCUAUGGUGAAGGCAUAGUCAAGGGAGGGGCGAAAGUCACACAAACCGG, the reverse-splicing fitness was 0.00591.
In the case of GUGCCUUGCGCCGGGAAACCACGCAAGGGAUGGUGUCAAAUUCGGCGAAACCUAAGCGCCCGCCCGGGCGUAUGGCAACGCGGAGCCAAGCUUCGGCGCCUGCGCCGAUGUAGGUGUAGCGACUAGACGGCACCCACCUAAGGCUAACGUUAUGGUGAAGGCAUAGUCCAGGGAGCGGCGAAAGUCACACAAACCGG, the reverse-splicing fitness came out at 0.0247.
As to GUGCCUUGCGCCGGGAAACCACGCAAGGGAUGGUGUCAAAUUCGGCGAAACCUAAGCGCCCGCCCGGGCGUAUGGCAACGCGGAGCCAAGCUUCGGCGCCUGCGCCGAUGUAGGUGUAGCGACUAGACGGCACCCACCUAAGGCUAACGUUAUGGUGAAGGCAUAGUCCAGGGAGAGGCGAAAGUCACACAAACCGG, the reverse-splicing fitness is 0.015.
For GUGCCUUGCGCCGGGAAACCACGCAAGGGAUGGUGUCAAAUUCGGCGAAACCUAAGCGCCCGCCCGGGCGUAUGGCAACGCGGAGCCAAGCUUCGGCGCCUGCGCCGAUGUAGGUGUAGCGACUAGACGGCACCCACCUAAGGCUAACGUUAUGGUGAAGGCAUAGUCCAGGGAGGGGCGAAAGUCACACAAACCGG, the reverse-splicing fitness came out at 0.00687.
The same measure for GUGCCUUGCGCCGGGAAACCACGCAAGGGAUGGUGUCAAAUUCGGCGAAACCUAAGCGCCCGCCCGGGCGUAUGGCAACGCGGAGCCAAGCUUCGGCGCCUGCGCCGAUGUAGGUGUAGCGACUAGACGGCACCCACCUAAGGCUAACGCUAUGGUGAAGGCAUAGUCUAGGGAGGGGCGAAAGUCACACAAACCGG: 0.00499; for GUGCCUUGCGCCGGGAAACCACGCAAGGGAUGGUGUCAAAUUCGGCGAAACCUAAGCGCCCGCCCGGGCGUAUGGCAACGCGGAGCCAAGCUUCGGCGCCUGCGCCGAUGUAGGUGUAGCGACUAGACGGCACCCACCUAAGGCUAACGCUAUGGUGAAGGCAUAGUCUAGGGAGCGGCGAAAGUCACACAAACCGG: 0.0158.
With GUGCCUUGCGCCGGGAAACCACGCAAGGGAUGGUGUCAAAUUCGGCGAAACCUAAGCGCCCGCCCGGGCGUAUGGCAACGCGGAGCCAAGCUUCGGCGCCUGCGCCGAUGUAGGUGUAGCGACUAGACGGCACCCACCUAAGGCUAACGCUAUGGUGAAGGCAUAGUCUAGGGAGAGGCGAAAGUCACACAAACCGG, the reverse-splicing fitness turned out to be 0.0149.
GUGCCUUGCGCCGGGAAACCACGCAAGGGAUGGUGUCAAAUUCGGCGAAACCUAAGCGCCCGCCCGGGCGUAUGGCAACGCGGAGCCAAGCUUCGGCGCCUGCGCCGAUGUAGGUGUAGCGACUAGACGGCACCCACCUAAGGCUAACGCUAUGGUGAAGGCAUAGUCGAGGGAGUGGCGAAAGUCACACAAACCGG: the reverse-splicing fitness stood at 0.00981.
The same measure for GUGCCUUGCGCCGGGAAACCACGCAAGGGAUGGUGUCAAAUUCGGCGAAACCUAAGCGCCCGCCCGGGCGUAUGGCAACGCGGAGCCAAGCUUCGGCGCCUGCGCCGAUGUAGGUGUAGCGACUAGACGGCACCCACCUAAGGCUAACGCUAUGGUGAAGGCAUAGUCAAGGGAGUGGCGAAAGUCACACAAACCGG: 0.00897; for GUGCCUUGCGCCGGGAAACCACGCAAGGGAUGGUGUCAAAUUCGGCGAAACCUAAGCGCCCGCCCGGGCGUAUGGCAACGCGGAGCCAAGCUUCGGCGCCUGCGCCGAUGUAGGUGUAGCGACUAGACGGCACCCACCUAAGGCUAACGCUAUGGUGAAGGCAUAGUCUAGGGAGUGGCGAAAGUCACACAAACCGG: 0.0143.

(Values after the RNAGym collection of RNA variant scans (doi:10.1093/molbev/msab373).)
